Measurements as given in patent US20230137139A1, “BIOSYNTHESIS OF CANNABINOIDS AND C[…]” (priority 2020, published 2023).

Legend:
[1] = test system: CBCVA, THCVA, and CBDVA production; assay: In vivo TS activity assay, Example 2 protein engineering of A. niger CBCAS, cultures fed divaric acid; assay type: cell-based, S. cerevisiae; conditions: for Mean CBCVA / Mean CBDVA / Mean THCVA: S. cerevisiae strains expressing A. niger CBCAS mutants; for Mean CBCVA / Mean CBDVA / Mean THCVA / average CBCVA titer compared with the A. niger positive control: secondary screen; for Mean CBCVA / Mean CBDVA / Mean THCVA / % CBCVA / % CBDVA / % THCVA: fed divaric acid; for % CBCVA / % CBDVA / % THCVA: share of terminal cannabinoid product profile
How it was run: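 S. cerevisiae expressing A. niger CBCAS point mutants (N-terminal MFalpha2, C-terminal HDEL signal peptides) grown 2 days at 30 °C in YEP+4% dextrose, then 4 days at 20 °C in YEP+4% galactose with 1 mM divaric acid plus daily 2% galactose and 1 mM divaric acid spikes, then 2 days with 100 mM sodium citrate pH 5.5. Methanol extracts analysed by LC-MS; quadruplicate.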

[2] = test system: CBCA, THCA, and CBDA production; assay: In vivo TS activity assay, Example 2 protein engineering of A. niger CBCAS, cultures fed olivetolic acid; assay type: cell-based, S. cerevisiae; conditions: for Mean CBCA / Mean CBDA / Mean THCA: secondary screen, olivetolic acid (Table 8); for % CBCA / % CBDA / % THCA: share of terminal cannabinoid product profile
How it was run: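 S. cerevisiae expressing A. niger CBCAS mutants (MFalpha2/HDEL-tagged) grown 2 days at 30 °C in YEP+4% dextrose, then 4 days at 20 °C in YEP+4% galactose with 1 mM olivetolic acid, spiked every 24 h with 2% galactose and 1 mM olivetolic acid. 100 mM citrate pH 5.5 added, methanol-extracted; CBCA, THCA, CBDA quantified by LC-MS.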

B1: t865755 (protein)
chain: MGNTTSIAGRDCLISALGGNSALAVFPNELLWTADVHEYNLNLPVTPAAITYPETAAQIAGVVKCASDYDYKVQARSGGHSFGNYGLGGADGAVVVDMKHFTQFSMDDETYEAVIGPGTTLNDVDIELYNNGKRAMAHGVCPTIKTGGHFTIGGLGPTARQWGLALDHVEEVEVVLANSSIVRASNTQNQDVFFAVKGAAANFGIVTEFKVRTEPAPGLAVQYSYTFNLGSTAEKAQFVKDWQSFISAKNLTRQFYNNMVIFDGDIILEGLFFGSKEQYDALGLEDHFAPKNPGNILVLTDWLGMVGHALEDTILKLVGNTPTWFYAKSLGFRQDTLIPSAGIDEFFEYIANHTAGTPAWFVTLSLEGGAINDVAEDATAYAHRDVLFWVQHFMVNPVGPISDTTYEFTDGLYDVLARAVPESVGHAYLGCPDPRMEDAQQKYWRTNLPRLQELKEELDPKNTFHHPQGVMPA
modifications: expressed in S. cerevisiae strain
Mean CBCVA [1]: 3729.91 µg/L
Mean CBDVA [1]: 0.00 µg/L
Mean THCVA [1]: 1768.56 µg/L
average CBCVA titer compared with the A. niger positive control [1]: higher
% CBCVA [1]: 67.84%
% CBDVA [1]: 0.00%
% THCVA [1]: 32.16%
Mean CBCA [2]: 19432.21 µg/L
Mean CBDA [2]: 4507.57 µg/L
Mean THCA [2]: 1001.22 µg/L
% CBCA [2]: 77.91%
% CBDA [2]: 18.07%
% THCA [2]: 4.01%

B2: t865742 (protein)
chain: MGNTTSIAGRDCLISALGGNSALAVFPNELLWTADVHEYNLNLPVTPAAITYPETAAQIAGVVKCASDYDYKVQARSGGHSFGNYGLGGADGAVVVDMKHFTQFSMDDETYTAVIGPGTTLNDVDIELYNNGKRAMAHGVCPTIKTGGHFTIGGLGPTARQWGLALDHVEEVEVVLANSSIVRASNTQNQDVFFAVKGAAANFGIVTEFKVRTEPAPGLAVQYSYTFNLGSTAEKAQFVKDWQSFISAKNLTRQFYNNMVIFDGDIILEGLFFGSKEQYDALGLEDHFAPKNPGNILVLTDWLGMVGHALEDTILKLVGNTPTWFYAKSLGFRQDTLIPSAGIDEFFEYIANHTAGTPAWFVTLSLEGGAINDVAEDATAYAHRDVLFWVQLFMVNPVGPISDTTYEFTDGLYDVLARAVPESVGHAYLGCPDPRMEDAQQKYWRTNLPRLQELKEELDPKNTFHHPQGVMPA
Mean CBCVA [1]: 2864.87 µg/L
Mean CBDVA [1]: 0.00 µg/L
Mean THCVA [1]: 1514.38 µg/L
% CBCVA [1]: 65.42%
% CBDVA [1]: 0.00%
% THCVA [1]: 34.58%
Mean CBCA [2]: 31427.04 µg/L
Mean CBDA [2]: 9022.22 µg/L
Mean THCA [2]: 2036.13 µg/L
% CBCA [2]: 73.97%
% CBDA [2]: 21.24%
% THCA [2]: 4.79%

B3: t865718 (protein)
chain: MGNTTSIAGRDCLISALGGNSALAVFPNELLWTADVHEYNLNLPVTPAAITYPETAAQIAGVVKCASDYDYKVQARSGGHSFGNYGLGGADGAVVVDMKHFTQFSMDDETYEAVIGPGTTLNDVDIELYNNGKRAMAHGVCPTIKTGGHFTIGGLGPTARQWGLALDHVEEVEVVLANSSIVRASNTQNQDVFFAVKGAAANFGIVTEFKVRTEPAPGLAVQYSYTFNLGSTAEKAQFVKDWQSFISAKNLTRQFYNNMVIFDGDIILEGLFFGSKEQYDALGLEDHFAPKNPGNILVLTDWLGMVGHALEDTILKLVGNTPTWFYAKSLGFRQDTLIPSAGIDEFFEYIANHTAGTPAWFVTLSLEGGAINDVAEDATAYAHRDVLFWVQLFMVNPVGPISDTTYEFTDGLYDVLARAVPESVGHAYLGCPDPRMEDAQQKYWRTNLPRLQELKEELDPKNTFHHPQGVMRA
Mean CBCVA [1]: 5888.44 µg/L
Mean CBDVA [1]: 0.00 µg/L
Mean THCVA [1]: 2516.89 µg/L
average CBCVA titer compared with the A. niger positive control [1]: higher
% CBCVA [1]: 70.06%
% CBDVA [1]: 0.00%
% THCVA [1]: 29.94%
Mean CBCA [2]: 28669.67 µg/L
Mean CBDA [2]: 7340.65 µg/L
Mean THCA [2]: 1640.20 µg/L
% CBCA [2]: 76.15%
% CBDA [2]: 19.50%
% THCA [2]: 4.36%

B4: t865730 (protein)
chain: MGNTTSIAGRDCLISALGGNSALAVFPNELLWTADVHEYNLNLPVTPAAITYPETAAQIAGVVKCASDYDYKVQARSGGHSFGNYGLGGADGAVVVDMKHFTQFSMDDETYEAVIGPGTTLNDVDIELYNNGKRAMAHGVCPTIKTGGHFTIGGLGPTARQWGLALDHVEEVEVVLANSSIVRASNTQNQDVFFAVKGAAAGFGIVTEFKVRTEPAPGLAVQYSYTFNLGSTAEKAQFVKDWQSFISAKNLTRQFYNNMVIFDGDIILEGLFFGSKEQYDALGLEDHFAPKNPGNILVLTDWLGMVGHALEDTILKLVGNTPTWFYAKSLGFRQDTLIPSAGIDEFFEYIANHTAGTPAWFVTLSLEGGAINDVAEDATAYAHRDVLFWVQLFMVNPVGPISDTTYEFTDGLYDVLARAVPESVGHAYLGCPDPRMEDAQQKYWRTNLPRLQELKEELDPKNTFHHPQGVMPA
Mean CBCVA [1]: 3406.05 µg/L
Mean CBDVA [1]: 0.00 µg/L
Mean THCVA [1]: 1922.88 µg/L
% CBCVA [1]: 63.92%
% CBDVA [1]: 0.00%
% THCVA [1]: 36.08%
Mean CBCA [2]: 27874.45 µg/L
Mean CBDA [2]: 8385.38 µg/L
Mean THCA [2]: 1771.94 µg/L
% CBCA [2]: 73.29%
% CBDA [2]: 22.05%
% THCA [2]: 4.66%

B5: t865732 (protein)
chain: MGNTTSIAGRDCLISALGGNSALAVFPNELLWTADVHEYNLNLPVTPAAITYPETAAQIAGVVKCASDYDYKVQARSGGHSFGNYGLGGADGAVVVDMKHFTQFSMDDETYEAVIGPGTTLNDVDIELYNNGKRAMAHGVCPTIKTGGHFTIGGLGPTARQWGLALDHVEEVEVVLANSSIVRASNTQNQDVFFAVKGAAANFGIVTEFKVRTEPAPGLAVQYSYTFNLGSTAEKAQFVKDWQSFISAKNLTRQFYNNMVIFDGDIILEGLFFGSKEQYDALGLEDHFAPKNPGNILVLTDWLGMVGHALEDTILKLVGNTPTWFYAKSLGFRQDTLIPSAGIDEFFEYIANHTAGTPAWFVTLSLEGGAINDVAEDATAYAHRDVLFWVQLFMVNPVGPISDTTYEFTDGLYDVLARAVPESVGYAYLGCPDPRMEDAQQKYWRTNLPRLQELKEELDPKNTFHHPQGVMPA
Mean CBCVA [1]: 4734.85 µg/L
Mean CBDVA [1]: 0.00 µg/L
Mean THCVA [1]: 2408.74 µg/L
average CBCVA titer compared with the A. niger positive control [1]: higher
% CBCVA [1]: 66.28%
% CBDVA [1]: 0.00%
% THCVA [1]: 33.72%
Mean CBCA [2]: 22672.81 µg/L
Mean CBDA [2]: 6720.79 µg/L
Mean THCA [2]: 1523.15 µg/L
% CBCA [2]: 73.34%
% CBDA [2]: 21.74%
% THCA [2]: 4.93%

B6: t865747 (protein)
chain: MGNTTSIAGRDCLISALGGNSALAVFPNELLWTADVHEYNLNLPVTPAAITYPETAAQIAGVVKCASDYDYKVQARSGGHSFGNYGLGGADGAVVVDMKHFTQFSMDDETYEAVIGPGTTLNDVDIELYNNGKRAMAHGVCPTIKTGGHFTIGGLGPTARQWGLALDHVEEVEVVLANSSIVRASNTQNQDVFFAVKGAAANFGIVTEFKVRTEPAPGLAVQYSYTFNLGSTAEKAQFVKDWQSFISAKNLTRQFYNNMVIFDGDIILEGLFFGSKEQYDALGLEDHFAPKNPGNILVLTDWLGMVGHALEDTILKLVGNTPTWFYAKSLGFRQDTLIPSAGIDEFFEYIANHTAGTPAWFVTLSLEGGAINDVAEDATAYAHRDVLFWVQLFMVNPAGPISDTTYEFTDGLYDVLARAVPESVGHAYLGCPDPRMEDAQQKYWRTNLPRLQELKEELDPKNTFHHPQGVMPA
modifications: expressed in S. cerevisiae strain
Mean CBCVA [1]: 5571.51 µg/L
Mean CBDVA [1]: 0.00 µg/L
Mean THCVA [1]: 2154.32 µg/L
average CBCVA titer compared with the A. niger positive control [1]: higher
% CBCVA [1]: 72.12%
% CBDVA [1]: 0.00%
% THCVA [1]: 27.88%
Mean CBCA [2]: 18021.77 µg/L
Mean CBDA [2]: 4783.24 µg/L
Mean THCA [2]: 1188.04 µg/L
% CBCA [2]: 75.11%
% CBDA [2]: 19.94%
% THCA [2]: 4.95%

B7: t865724 (protein)
chain: MGNTTSIAGRDCLISALGGNSALAVFPNELLWTADVHEYNLNLPVTPAAITYPETAAQIAGVVKCASDYDYKVQARSGGHSFGNYGLGGADGAVVVDMKHFNQFSMDDETYEAVIGPGTTLNDVDIELYNNGKRAMAHGVCPTIKTGGHFTIGGLGPTARQWGLALDHVEEVEVVLANSSIVRASNTQNQDVFFAVKGAAANFGIVTEFKVRTEPAPGLAVQYSYTFNLGSTAEKAQFVKDWQSFISAKNLTRQFYNNMVIFDGDIILEGLFFGSKEQYDALGLEDHFAPKNPGNILVLTDWLGMVGHALEDTILKLVGNTPTWFYAKSLGFRQDTLIPSAGIDEFFEYIANHTAGTPAWFVTLSLEGGAINDVAEDATAYAHRDVLFWVQLFMVNPVGPISDTTYEFTDGLYDVLARAVPESVGHAYLGCPDPRMEDAQQKYWRTNLPRLQELKEELDPKNTFHHPQGVMPA
Mean CBCVA [1]: 2190.11 µg/L
Mean CBDVA [1]: 0.00 µg/L
Mean THCVA [1]: 1153.25 µg/L
% CBCVA [1]: 65.51%
% CBDVA [1]: 0.00%
% THCVA [1]: 34.49%
Mean CBCA [2]: 30758.44 µg/L
Mean CBDA [2]: 7663.56 µg/L
Mean THCA [2]: 2146.00 µg/L
% CBCA [2]: 75.82%
% CBDA [2]: 18.89%
% THCA [2]: 5.29%
